Holding throughout (test): ELISA on coated recombinant protein, OD 405 nm
A general note: An ELISA detects its analyte on a solid surface through an enzyme-linked reagent.

Experiment [1] has as its target hMPV B2 F protein (his-tagged, not trypsin treated) (human metapneumovirus).
Experiment [2] concerns the target hMPV A1 F (human metapneumovirus).
Experiment [3] deals with hMPV B1 F (human metapneumovirus).
Experiment [4] addresses hMPV B2 F trimer (heated) (human metapneumovirus).
The target in experiment [5] is hMPV B2 F GCN4 (human metapneumovirus).
Experiment [6] addresses hMPV A2 F (human metapneumovirus).
Experiment [7] concerns the target hMPV A1 F monomer (human metapneumovirus).
The target of experiment [8] is hMPV A1 F trimer (heated) (human metapneumovirus).
The target of experiment [9] is hMPV B2 F monomer (human metapneumovirus).

B1: MPV491 (antibody, V domains shown)
VH: QVQLQESGPGLVKSSQTLSLTCTVSGGSISSVTSHWTWIRQHPGKGLEWIGYIFSSGTTYYSPSLRSRLTMSVDTSKNQFSLQLSSVTAADTAMYYCARGIYCGDSCYKGTDYWGRGTLVTVSS
VL: IRLMTQTPVTLPVTPGEPASISCRSSQSLLHSNGYNYLDWYLQKPGQSPQLLIYRGSTRASGVPDRFSGSGSGTEFTLKISRVEAEDVGVYYCMQGLQTPYTFGQGTKLESR
The EC50 is the concentration needed to bring the measured effect to its halfway point. As to B1, the EC50 in experiment [1] was found to be 2.1 µg/mL; in experiment [2] it was 1.5 µg/mL; in experiment [3] it was 2 µg/mL; in [4], 1.7 µg/mL; in experiment [5], 0.5 µg/mL; in [6], 2.2 µg/mL. The EC50 in [7] came to 1.3 µg/mL; in experiment [8], 1.1 µg/mL; in experiment [9], 0.48 µg/mL.

B2: MPV477 (antibody, V domains shown)
VH: EVQLVQSGAEVKKPGASVEVSCKTSGYTFTDYYLHWVRQAPGQGLEWMGWINPRSGGTKYGQKFQGRVTMTRDTSISTAYMDLRGLRSDDTAVYYCARAPLLTVYAVAHRSGENRFDPWGQGTVTVSS
VL: QPPSLSGAPGQTVTISCTGSGSNIGAGYDVNWYQCLPGTAPKLLMFDNSNRPSGVPDRFSGSRSGASASLAITGLQAEDEADYYCQSYDSGLSGWVFGGGTKLTVL
In the case of B2, the EC50 in experiment [1] was 0.063 µg/mL; in [2] it was 0.083 µg/mL; in experiment [3] it was 0.02 µg/mL; in [4], 0.063 µg/mL; in experiment [5], 0.037 µg/mL; in experiment [6], 0.023 µg/mL. Further, the EC50 in experiment [7] stood at 0.049 µg/mL; in experiment [8] it was 0.087 µg/mL; in [9], 0.21 µg/mL.

B3: MPV489 (antibody, V domains shown)
VH: EVQLLESGGGLVQPGGSLRLSCAASKFTFNNYEMNWLRQAPGKGLEWVSSISSSGDTIHNADSVKGRFIISRDNAKNSLHLQMNGLRAEDTAVYYCARAGSGWAYDAFDIWGLGTMVTVSS
VL: LSASVGDRVTITCRASQSISSFLNWYQQKPGKAPKLLMYAASSLPVGVPSRFSGSGSGPEYTLTISNLQPEDFATYYCQQGYSSPPTFGGGTRLEVK
Turning to B3, the EC50 is 4.2 µg/mL in [1]; 5 µg/mL in experiment [2]; 18 µg/mL in experiment [4]; 2.3 µg/mL in [5]; 9.3 µg/mL in experiment [6]; 7 µg/mL in experiment [7]. The results for the EC50 in [8] and in [9] were 4.5 µg/mL and 1.3 µg/mL, respectively.

B4: MPV86 (antibody, V domains shown)
VH: QVQLVQSGAEVKKPGSSVKVSCKASGDTFNDVALSWVRQAPGQGLEWLGGIIPFFGTANYAQRFQDRVTITADASTSTAYLELGGLRSEDTAVYYCARGWSCRNITCFMMGYYFYIMDVWGQGTLVTVSS
VL: LSLSPGERATLSCRASQSVGNFLAWYQQKPGQTPRLLIQDASNRATGIPARFSGTGSGTDFTLTISSLEPEDFAVYYCQQRSNWPPTFGPGTKVDIK
For the molecule B4, the EC50 in [1] is 5.7 µg/mL; in [2], 0.3 µg/mL; in experiment [3] it was 0.073 µg/mL; in experiment [5], 0.12 µg/mL; in experiment [6], 0.083 µg/mL; in [7], 0.18 µg/mL. In addition, in experiment [9], the EC50 was found to be 0.21 µg/mL.

B5: MPV456 (antibody, V domains shown)
VH: QVQLQESGPGVVKPSGTLSLTCGVSGGSISSSYWWSWVRQPPGKGLEWIGEIYHSGSTNYNPSLKRRVTISVDKSKNQFSLKVTSVTAADTAVYYCARGPIQYYDILTEERVGYCDYWGQGTLVTVSS
VL: TLSASVGDRVTITCRASQSISSWLAWFQQKPGKAPKLLIYKTSSLESGVPSRFSGSGSGTEFTLTISSLQPDDFATYYCQEYNSYSRTFGQGTKVEIK
Take B5: the EC50 in experiment [1] was determined as 0.61 µg/mL; in experiment [2] it was 1.4 µg/mL; in experiment [3], 0.49 µg/mL; in [4], 1.8 µg/mL; in experiment [5], 0.69 µg/mL; in experiment [6] it was 0.42 µg/mL. The values for the EC50 in experiment [7] and in [8] were 3.5 µg/mL and 1.8 µg/mL, respectively.

B6: MPV485 (antibody, V domains shown)
V domain 1: EVQLQEPGPGLVKPSETLSLTCTVSGGSISSTNSFWGWVRQPPGKGLEWIGSIYYSGTTYYNSSLKSRVTISVDTSKNQFSLRLSSVTAADTAVYYCARQGLTSSWYDGSGLDVWG
V domain 2: SYELTQPPSVSVSPGQTASITCSGDKLGNKYACWYQQRPGQSPVLVIYQDTKRPSGIPERFSGSNSGNTATLTISGTQAMDEADYYCQAWDSNTVVFGGGTKLTVL
In the case of B6, the EC50 in [1] is 0.18 µg/mL; in [2] it was 0.11 µg/mL; in experiment [3], 0.078 µg/mL; in experiment [4], 0.36 µg/mL; in experiment [5] it was 0.16 µg/mL; in [6], 0.086 µg/mL. The EC50 in experiment [7] came to 0.24 µg/mL; in experiment [8], 0.32 µg/mL; in experiment [9] it was 0.18 µg/mL.

B7: MPV481 (antibody, V domains shown)
VH: EVQLVQSGGGLVKPGGSLRLSCAASGLPFNNAWMNWVRQAPGKGLEWVGRIKSKIDGGTTEYAAPVKGRFTISRDDSENTLYLQMNSLRTEDTAVYYCTTEYYALLSGNYSDCWGQGTLVTVSS
VL: DIVMTQSPFSLSLSPGERATLSCRASQSIKRAYLGWYQQKPGQAPRLLIYGASNRATGIPDRFSGSGSGTDFTLTISRLEPEDFAVYYCQQYGDSPGGSFGQGTKLEIR
As to B7, the EC50 in experiment [1] is 0.16 µg/mL; in [2], 0.31 µg/mL; in experiment [4], 0.31 µg/mL; in experiment [5], 0.11 µg/mL; in experiment [6], 0.11 µg/mL; in experiment [7], 0.17 µg/mL. The EC50 in experiment [8] was 0.28 µg/mL; in experiment [9] it was 0.2 µg/mL.

B8: MPV482 (antibody, V domains shown)
VH: EVQLVQSGGGVVQPGRSLRLSCAASGFTFSSFAMHWVRQAPGKGLEWVALISDDGNNKYHADSVKGRFTISRDSSKNTLYLQMNSLRGEDTAVYYCARDGSVVGAAAHCDHWGQGTLVTVSS
VL: SYELTQPPSVSVSPGQTARITCSGDALPNQCAYWYQQKPGLAPVLLIYKDKERPSGIPERFSGSISGTTVTLTISGVQAEDEADYYCQSSDSSSTVVFGGGTKLTVL
For the molecule B8, the concentration for a half-maximal effect (EC50) in [1] was 0.33 µg/mL; in [2], 0.13 µg/mL; in experiment [3], 0.072 µg/mL; in experiment [5] it was 0.092 µg/mL; in [6] it was 0.057 µg/mL; in experiment [7], 0.29 µg/mL. In addition, the results for the EC50 in experiment [8] and in experiment [9] were 0.35 µg/mL and 0.2 µg/mL, respectively.

B9: MPV414 (antibody, V domains shown)
VH: QVQLVQSGPEVKKPGSSVMVSCKTSGGNFNNFAISWVRQAPGQGLEWMGGIVPIFGTANYAQKSQDRVTITADPSSSTAYLQLSSLTSDDTAIYYCARDLGRSSNYYYYSVFESWGQGTLVTVSS
VL: DIVMTQSPATLSLSPGERATLSCRASQSVGDKLAWYQQKPGQAPRLLIYGASTRATDIPARFSGSGSGTEFTLTVSSLQPEDFAVYYCQQYENWPPITFGQGTRLEIK
Turning to B9, the EC50 is 1.8 µg/mL in experiment [1]; 0.15 µg/mL in experiment [2]; 0.034 µg/mL in experiment [3]; 0.061 µg/mL in experiment [5]; 0.034 µg/mL in experiment [6]; 0.074 µg/mL in experiment [7]. The concentration giving a half-maximal response (EC50) in [9] turned out to be 0.19 µg/mL.

B10: MPV467 (antibody, V domains shown)
VH: EVQLVESGGGVVRPGTSLRVSCAAFDFNFRDYGMHWVRQAPGKGLEWVAGIWYDGSNKDYADSVKGRFTISRDNSQNTLYLQMNSLRVEDTAVYYCARDPRTHREGALSHFDSWGQGTLVTVSS
VL: PNELTQDPAVSVALGQTVRITCQGDSLRNYFAGWYQQKPGQAPLLVLYGENIRPSGIPDRFSGSSSGNTVSLTITGAQAEDEADYYCNSRDNSGNHWVFGGGTRLTVL
Regarding B10, the EC50 was 0.37 µg/mL in experiment [1]; 0.38 µg/mL in experiment [2]; 0.12 µg/mL in [3]; 0.65 µg/mL in experiment [4]; 0.061 µg/mL in experiment [5]; 0.12 µg/mL in [6]. Besides, the EC50 in experiment [7] came to 0.053 µg/mL; in experiment [8], 0.26 µg/mL; in [9], 0.06 µg/mL.

B11: MPV488 (antibody, V domains shown)
VH: EVQLVQSGFEVKKPGASVKVSCKASGYNFNNYGISWVRQAPGQGLEWMGWISAYTGNTNEAQKFQGRVSMTTDTSTSTAYMEVRSLRSDDTAVYYCARDIGSSMFYSYFYGMDVWGQGTTVIVSS
VL: SLSVSLGERATINCKSSESVLYNSNNENYLDWYQQKPGQPPKLLIYWASTRASGVPDRFSGSASGTDFTLTISSLQAEDVAVYYCQQYYSTPRTFGQGTKVEIK
For B11, the EC50 in [5] worked out at 0.073 µg/mL; in experiment [9], 0.063 µg/mL.

B12: MPV454 (antibody, V domains shown)
VH: EVQLVESGGGLVKPGGSLRLSCSTSGFVFSSYAMHWVRQAPGKGLEHVSAISSTGDNTHYADSVKGRFTISRDNSRGRLYLQMTSVRPEDAALYYCVKDLYSGRFYYFLDDWGQGTRIIVSS
VL: DIQVTQSPSSLSASVGDRVTISCRASQNISNYLNWFQQRPGKAPKLLIYVASTLQSGAPSRFSGSGSGTDFTLTITDLQPEDFATYYCQQSYNTPPITFGQGTRLEIK
B12: the EC50 in experiment [1] is 5.2 µg/mL; in [2] it was 0.49 µg/mL; in experiment [3] it was 0.12 µg/mL; in experiment [4], 0.15 µg/mL; in experiment [5], 0.068 µg/mL; in experiment [6], 0.12 µg/mL. The EC50 worked out at 0.052 µg/mL in [7], 0.14 µg/mL in experiment [8] and 0.046 µg/mL in experiment [9].

B13: MPV487 (antibody, V domains shown)
VH: EVQLLESGGGLVQPGRSLRLSCTASGFTFDDYAMHWVRQLPGKGLEWVSGISWNSDNIGYADSVKGRFTISRDNGKNSLYLQMNSLRAEDTAFYYCAKDVRIDYDLLIGHIDYWGPGTLVTVSS
VL: TQSPVTLSLSPGERATLSCRASQSFGGYCAWYQQKPGQSPRLLIYDASNRATGVPARFSGSGSGTDFTLTISSLEPEDSAVYFCQQRGNWPIFGQGTRLEI
As for B13, the EC50 in [1] turned out to be 0.37 µg/mL; in experiment [2], 0.11 µg/mL; in [3] it was 0.065 µg/mL; in experiment [4], 0.54 µg/mL; in [5], 0.071 µg/mL; in experiment [6], 0.1 µg/mL. For the same molecule, the EC50 in experiment [7] came to 0.13 µg/mL; in experiment [9], 0.099 µg/mL.

(Values after patent US20250188153A1.)
